Experimental findings from article PMC8881100, “Biochemical and Molecular Dynamics Study of a Novel GH 43 α-L-Arabinofuranosidase/β-Xylosidase From Caldicellulosiruptor saccharolyticus DSM8903” (Frontiers in Bioengineering and Biotechnology, 2022) are described below.

Substrate in this data set: O=[N+]([O-])c1ccc(O[C@@H]2O[C@@H](CO)[C@H](O)[C@H]2O)cc1
Kind of data set: purified protein. Format: biochemical, Caldicellulosiruptor saccharolyticus. To be noted: citric acid phosphate buffer pH 6, 70°C, 0.5 to 3.5 mM substrate.

B1: CAX43 (GH43 α-L-arabinofuranosidase/β-xylosidase) (Caldicellulosiruptor saccharolyticus DSM 8903) (protein)
chain: MIPTLWDPNVDEERYKNPIIHADYSDPDVIRVGSDYFLVASSFNCVPGLPILHSRDLINWKIVNYAVERLPSPEYDTPQIGKGIWAPAIRYHEEKFYIYFSMPDDGIYVCYTDDPFGKWSDIHLVKAAKGWIDPCPFWDEDGNAYLVNAFAKSRIGFNSKLCVSRLSADGLRVLDEGKIVFDGAKTQPTIEGPKLYKRNGYYYIFAPAGGVKFGWQTVLRSKDIYGPYEEKIVLHQGKTKINGPHQGAWVETEKGEHWFVHFQDRGPYGRVVHLQPMRWEDNWPVIGVDIDGDGIGEPVEEYRKPNTNYKNEYDFYLECSDHFDKPQISLQWQWHANPQDNWYSLEKRKSYLRLYAVGNLTNNNKVKSIFFMPNLLLQKIPAPEFIAIVKLEVNFNKEGSYAGIIMSGSRYSSIGIKRGQKKLSLVQVLGDVKEDVIENTVAKMPIETSQVFLKISVKEGAVCKFSFSFDGKKFTDFGTEFIPQEAIWVGSKIGLFCINTSGKNGVIQSDYADFDYFKIENFRKEDEC
notes: C-terminal His6 tag; pEASY blunt E2, E. coli BL21 (C43); Ni-NTA purified
Regarding B1, the Michaelis constant (Km) was 1071 µM and the kcat was found to be 234.674 s⁻¹.

By Km is commonly meant the substrate concentration at which the rate is half of its maximum. As usually defined, the kcat is the maximal rate divided by the concentration of active sites.
